Blank lines part the entries; values can stand above or below the binder they belong to. Where no end group is shown, it is not given here. resin bead = not defined here; resin = not defined here
Columns and labels:
[1] = target: T1, memapsin 1 (auto-catalytically activated promemapsin 1-T1; amino acid residues 58-461 of SEQ ID NO: 4) (Homo sapiens (Human), UniProt Q9Y5Z0 63-466); assay: on-bead combinatorial inhibitor library probed with memapsin 1, antibody/alkaline phosphatase staining
T1 construct: also called Mep1; M1
T1 sequence: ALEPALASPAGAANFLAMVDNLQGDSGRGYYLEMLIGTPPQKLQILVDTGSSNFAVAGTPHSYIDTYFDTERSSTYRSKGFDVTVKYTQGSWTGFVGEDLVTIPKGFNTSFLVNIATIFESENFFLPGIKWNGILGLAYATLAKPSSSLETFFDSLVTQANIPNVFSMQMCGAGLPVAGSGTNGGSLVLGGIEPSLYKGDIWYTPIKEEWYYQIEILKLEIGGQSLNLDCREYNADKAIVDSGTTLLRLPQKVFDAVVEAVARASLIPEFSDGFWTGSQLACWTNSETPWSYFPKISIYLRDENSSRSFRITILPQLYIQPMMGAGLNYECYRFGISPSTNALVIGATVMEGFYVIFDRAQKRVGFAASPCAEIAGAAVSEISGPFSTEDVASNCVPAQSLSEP

[2] = target: T2, memapsin 2 (spontaneously activated promemapsin 2-T1; amino acids 43-456 and 45-456 of SEQ ID NO: 8) (human, UniProt P56817 41-454); assay: on-bead combinatorial inhibitor library, antibody/alkaline phosphatase staining
T2 construct: The library probing says only 'recombinant memapsin 2'; also called BACE; ASP2
T2 sequence (P56817 41-454): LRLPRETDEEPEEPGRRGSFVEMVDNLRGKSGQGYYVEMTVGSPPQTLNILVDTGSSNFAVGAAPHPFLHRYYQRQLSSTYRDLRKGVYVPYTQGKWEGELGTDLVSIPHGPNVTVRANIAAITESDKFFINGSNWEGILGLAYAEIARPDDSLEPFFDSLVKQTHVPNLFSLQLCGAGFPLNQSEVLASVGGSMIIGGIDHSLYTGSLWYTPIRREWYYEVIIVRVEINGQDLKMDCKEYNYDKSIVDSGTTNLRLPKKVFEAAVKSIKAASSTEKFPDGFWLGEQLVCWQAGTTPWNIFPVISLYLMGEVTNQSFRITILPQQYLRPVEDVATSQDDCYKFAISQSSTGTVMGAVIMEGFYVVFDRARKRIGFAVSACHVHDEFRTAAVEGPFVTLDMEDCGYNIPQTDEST

[3] = target: T1, memapsin 1 (auto-catalytically …); assay: ratio of Ki apparent for memapsin 1 to Ki apparent for memapsin 2
[4] = target: T2, memapsin 2 (spontaneously activated …); assay: inhibition of FS-2 fluorogenic substrate cleavage; paragraph 177 calls the same value Ki
[5] = target: T2, memapsin 2 (spontaneously activated …); assay: enzyme inhibition kinetics
[6] = target: T1, memapsin 1 (auto-catalytically …); assay: inhibition of FS-2 fluorogenic substrate cleavage
[7] = target: T2, memapsin 2 (spontaneously activated …); assay: on-bead combinatorial inhibitor library probed with 4 nM memapsin 2, OM99-2 wash, antibody/alkaline phosphatase staining
[8] = target: T2, memapsin 2 (spontaneously activated …); assay: co-crystal structure

B1: library bead inhibitor Gly-Ile-Asp-Leu*Ala-Val-Val-Phe-Arg-Met-Gly-Gly-resin (peptide)
peptide: GIDLAVVFRMGG-resin
modifications: reading uncertain; also: hydroxyethylene isostere between Leu4 and Ala5, printed as Gly-Ile-Asp-Leu*Ala-Val-Val-Phe-Arg-Met-Gly-Gly-resin
- binding result [1]: binds

B2: library bead inhibitor Gly-Ile-Asp-Leu*Ala-Val-Asn-Phe-Arg-Met-Gly-Gly-resin (peptide)
peptide: GIDLAVNFRMGG-resin
modifications: reading uncertain; also: hydroxyethylene isostere between Leu4 and Ala5, printed as Gly-Ile-Asp-Leu*Ala-Val-Asn-Phe-Arg-Met-Gly-Gly-resin
- binding result [1]: binds

B3: library bead inhibitor Gly-Ile-Phe-Leu*Ala-Val-Glu-Phe-Arg-Met-Gly-Gly-resin (peptide)
peptide: GIFLAVEFRMGG-resin
modifications: reading uncertain; also: hydroxyethylene isostere between Leu4 and Ala5, printed as Gly-Ile-Phe-Leu*Ala-Val-Glu-Phe-Arg-Met-Gly-Gly-resin
- binding result [1]: binds

B4: library bead inhibitor Gly-Leu-Asn-Leu*Ala-Val-Glu-Phe-Arg-Met-Gly-Gly-resin (peptide)
peptide: GLNLAVEFRMGG-resin
modifications: reading uncertain; also: hydroxyethylene isostere between Leu4 and Ala5, printed as Gly-Leu-Asn-Leu*Ala-Val-Glu-Phe-Arg-Met-Gly-Gly-resin
- binding result [1]: binds

B6: library bead Neg1: Gly-Phe-Met-Leu*Ala-Asn-Arg-Phe-Arg-Met-Gly-Gly-resin (peptide)
peptide: GFMLANRFRMGG-resin
modifications: reading uncertain; also: hydroxyethylene isostere between Leu4 and Ala5, printed as Gly-Phe-Met-Leu*Ala-Asn-Arg-Phe-Arg-Met-Gly-Gly-resin
notes: Randomly selected negative control bead
- binding result [2]: no binding (tested: 4 nM memapsin 2)

Binder: ELDLAVEF (also: hydroxyethylene isostere in place of Leu4-Ala5 peptide bond) [OM00-3 (ELDL*AVEF)]
- Ki apparent (M1/M2) [3]: 0.59
- Ki apparent [4]: 0.31 nM
- Ki [5]: 0.3 nM
- fold improvement of Ki over OM99-2 [5]: 5.2 fold
- fold lower Ki than OM99-2 [5]: ~5 fold
- Ki apparent [6]: 0.18 nM

B9: library bead inhibitor Gly-Ile-Asp-Leu*Ala-Val-Tyr-Phe-Arg-Met-Gly-Gly-resin (peptide)
peptide: GIDLAVYFRMGG-resin
modifications: reading uncertain; also: hydroxyethylene isostere between Leu4 and Ala5, printed as Gly-Ile-Asp-Leu*Ala-Val-Tyr-Phe-Arg-Met-Gly-Gly-resin
- binding result [7]: binds

B10: OM99-2 (EVNL*AAEF) (peptide)
peptide: EVNXXAEF
modifications: hydroxyethylene transition-state isostere (*) in place of the peptide bond between Leu4 (P1) and Ala5 (P1′)
notes: also called EVNLΨAAEF
- binding result [8]: binds

B11: library bead inhibitor Gly-Leu-Asp-Leu*Ala-Val-Glu-Phe-Arg-Met-Gly-Gly-resin (peptide)
peptide: GLDLAVEFRMGG-resin
modifications: reading uncertain; also: hydroxyethylene isostere between Leu4 and Ala5, printed as Gly-Leu-Asp-Leu*Ala-Val-Glu-Phe-Arg-Met-Gly-Gly-resin
- binding result [7]: binds

B13: library bead inhibitor Gly-Leu-Glu-Leu*Ala-Val-Glu-Phe-Arg-Met-Gly-Gly-resin (peptide)
peptide: GLELAVEFRMGG-resin
modifications: reading uncertain; also: hydroxyethylene isostere between Leu4 and Ala5, printed as Gly-Leu-Glu-Leu*Ala-Val-Glu-Phe-Arg-Met-Gly-Gly-resin
- binding result [7]: binds

B14: library bead inhibitor Gly-Leu-Phe-Leu*Ala-Val-Glu-Phe-Arg-Met-Gly-Gly-resin (peptide)
peptide: GLFLAVEFRMGG-resin
modifications: reading uncertain; also: hydroxyethylene isostere between Leu4 and Ala5, printed as Gly-Leu-Phe-Leu*Ala-Val-Glu-Phe-Arg-Met-Gly-Gly-resin
- binding result [7]: binds

B15: library bead inhibitor Gly-Leu-Asp-Leu*Ala-Val-Trp-Phe-Arg-Met-Gly-Gly-resin (peptide)
peptide: GLDLAVWFRMGG-resin
modifications: reading uncertain; also: hydroxyethylene isostere between Leu4 and Ala5, printed as Gly-Leu-Asp-Leu*Ala-Val-Trp-Phe-Arg-Met-Gly-Gly-resin
- binding result [1]: binds

B17: library bead inhibitor Gly-Leu-Glu-Leu*Ala-Val-Gln-Phe-Arg-Met-Gly-Gly-resin (peptide)
peptide: GLELAVQFRMGG-resin
modifications: reading uncertain; also: hydroxyethylene isostere between Leu4 and Ala5, printed as Gly-Leu-Glu-Leu*Ala-Val-Gln-Phe-Arg-Met-Gly-Gly-resin
- binding result [7]: binds
- binding result [1]: binds

B18: library bead inhibitor Gly-Leu-Asp-Leu*Ala-Val-Leu-Phe-Arg-Met-Gly-Gly-resin (peptide)
peptide: GLDLAVLFRMGG-resin
modifications: reading uncertain; also: hydroxyethylene isostere between Leu4 and Ala5, printed as Gly-Leu-Asp-Leu*Ala-Val-Leu-Phe-Arg-Met-Gly-Gly-resin
- binding result [1]: binds

B21: library bead inhibitor Gly-Leu-Glu-Leu*Ala-Val-Trp-Phe-Arg-Met-Gly-Gly-resin (peptide)
peptide: GLELAVWFRMGG-resin
modifications: reading uncertain; also: hydroxyethylene isostere between Leu4 and Ala5, printed as Gly-Leu-Glu-Leu*Ala-Val-Trp-Phe-Arg-Met-Gly-Gly-resin
- binding result [1]: binds

Further lines, results first:

- binding result [1]: binds
B5: library bead inhibitor Gly-Leu-Gln-Leu*Ala-Val-Ile-Phe-Arg-Met-Gly-Gly-resin (peptide)
peptide: GLQLAVIFRMGG-resin
modifications: reading uncertain; also: hydroxyethylene isostere between Leu4 and Ala5, printed as Gly-Leu-Gln-Leu*Ala-Val-Ile-Phe-Arg-Met-Gly-Gly-resin

- binding result [2]: no binding (tested: 4 nM memapsin 2)
B7: library bead Neg2: Gly-Asp-Phe-Leu*Ala-(not printed)-Ser-Phe-Arg-Met-Gly-Gly-resin (peptide)
peptide: GDFLAXSFRMGG-{resin bead}
modifications: not fully specified; X: residue not identified in the source; also: hydroxyethylene isostere between Leu4 and Ala5
notes: as for B6

- binding result [1]: binds
B8: library bead inhibitor Gly-Ile-Asn-Leu*Ala-Val-Leu-Phe-Arg-Met-Gly-Gly-resin (peptide)
peptide: GINLAVLFRMGG-resin
modifications: reading uncertain; also: hydroxyethylene isostere between Leu4 and Ala5, printed as Gly-Ile-Asn-Leu*Ala-Val-Leu-Phe-Arg-Met-Gly-Gly-resin

- binding result [7]: binds
B12: library bead inhibitor Gly-Leu-Asp-Leu*Ala-Val-Gln-Phe-Arg-Met-Gly-Gly-resin (peptide)
peptide: GLDLAVQFRMGG-resin
modifications: reading uncertain; also: hydroxyethylene isostere between Leu4 and Ala5, printed as Gly-Leu-Asp-Leu*Ala-Val-Gln-Phe-Arg-Met-Gly-Gly-resin

- binding result [1]: binds
B16: library bead inhibitor Gly-Leu-Asp-Leu*Ala-Val-Lys-Phe-Arg-Met-Gly-Gly-resin (peptide)
peptide: GLDLAVKFRMGG-resin
modifications: reading uncertain; also: hydroxyethylene isostere between Leu4 and Ala5, printed as Gly-Leu-Asp-Leu*Ala-Val-Lys-Phe-Arg-Met-Gly-Gly-resin

- binding result [1]: binds
B19: library bead inhibitor Gly-Leu-Asp-Leu*Ala-Val-Met-Phe-Arg-Met-Gly-Gly-resin (peptide)
peptide: GLDLAVMFRMGG-resin
modifications: reading uncertain; also: hydroxyethylene isostere between Leu4 and Ala5, printed as Gly-Leu-Asp-Leu*Ala-Val-Met-Phe-Arg-Met-Gly-Gly-resin

- binding result [1]: binds
B20: library bead inhibitor Gly-Leu-Asp-Leu*Ala-Val-Thr-Phe-Arg-Met-Gly-Gly-resin (peptide)
peptide: GLDLAVTFRMGG-resin
modifications: reading uncertain; also: hydroxyethylene isostere between Leu4 and Ala5, printed as Gly-Leu-Asp-Leu*Ala-Val-Thr-Phe-Arg-Met-Gly-Gly-resin

Reference: patent US20060234944A1 (OKLAHOMA MEDICAL RESEACH FOUNDATION, published 2006)
